# Laboratory results as given in patent US20200317758A1 (NEW YORK UNIVERSITY, published 2020).
# Residue numbers refer to the chain shown, from its start.
# T1: recombinant derivative of the LukE protein (SEQ ID NO: 826) with amino-terminal poly-histidine affinity tag (Staphylococcus aureus, UniProt Q2FXB0 24-306)
# T1 construct: not biotinylated in HDX-MS and neutralization assays; also called biotinylated LukE; LukE antigen
# T1 sequence: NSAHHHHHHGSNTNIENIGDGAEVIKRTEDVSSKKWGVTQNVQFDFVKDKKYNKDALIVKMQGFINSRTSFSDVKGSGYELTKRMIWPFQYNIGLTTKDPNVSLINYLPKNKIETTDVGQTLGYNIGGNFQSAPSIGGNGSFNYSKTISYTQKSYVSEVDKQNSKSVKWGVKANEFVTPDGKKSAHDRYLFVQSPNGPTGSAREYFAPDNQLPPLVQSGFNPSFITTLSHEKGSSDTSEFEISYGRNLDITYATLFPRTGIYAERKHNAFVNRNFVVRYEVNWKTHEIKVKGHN
# T2: recombinant derivative of the LukD protein (SEQ ID NO: 824) with amino-terminal polyhistidine affinity tag, … (Staphylococcus aureus, UniProt Q2FXB1 27-327, chemically biotinylated in vitro (sites not given))
# T2 construct: it carries the N-terminal His tag; also called biotinylated LukD; LukD antigen
# T2 sequence: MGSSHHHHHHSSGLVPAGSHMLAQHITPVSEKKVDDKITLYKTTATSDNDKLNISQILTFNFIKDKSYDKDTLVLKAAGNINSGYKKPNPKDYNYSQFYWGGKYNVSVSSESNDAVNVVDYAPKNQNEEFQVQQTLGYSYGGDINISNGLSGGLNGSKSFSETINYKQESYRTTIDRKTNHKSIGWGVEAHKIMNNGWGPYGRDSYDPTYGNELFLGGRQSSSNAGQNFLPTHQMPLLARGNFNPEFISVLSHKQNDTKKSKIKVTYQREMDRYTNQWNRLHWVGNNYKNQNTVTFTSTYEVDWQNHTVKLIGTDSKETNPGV
# B1: anti-LukAB mAb SM1B252 (antibody, mouse IgG2a, kappa, V domains shown)
# VH: QVQLQQSGAELMKPGASVKISCKASGYTFSDYWIEWIKQRPGHGLEWMGEILPGSDKTNYNEKFKGKATFTADSSSNTAYMQLNSLTSEDSAVFYCATAGDDYVKWGQGTLVTVSA
# VL: DVLMTQTPLSLPVSLGDQASISCRSSQSIVYSNGNTYLEWYLQKPGQSPKLLIYKVSNRFSGVPDRFSGSGSGTDFTLKISRVEAEDLGVYYCFQGSHVPFTFGSGTKLEIKR
# B2: Fab SM1B438 (the Fab corresponding to mAb SM1B318) (Fab, V domains shown)
# VH: QVQLQQSGAELMNPGASVKISCKSTGYKFSSYWIEWVKQRPGHGLEWMGEILPGSGSTNHNEKFKGKAIFTADASSNTAYMELSSLTSEDSAVYYCARTISTATDWFAYWGQGTLVTVSA
# VL: B1 VL with S28T, N33D, F67V, F101Y, S105G
# B3: anti-LukE mAb SM1B318 (antibody, mouse IgG2a, kappa, V domains shown)
# VH: B2 VH
# VL: B1 VL with S28T, N33D, F67V, F101Y, S105G
# B4: Fab SM1B709 (the Fab corresponding to mAb SM1B507) (Fab, V domains shown)
# VH: EVQLQQSGAELVKPGASVKMSCKASGYTFTDYYMDWVKQSHGKSFEWIGHVNPYNGDTRYNQKFKGKATLTVDKSSTTAYMELNSLTSEDSAVYYCARGNFFDYWGQGTTLSVSS
# VL: DIVMTQSPAIMSASPGEKVTIPCSASSSVSYMHWFQQKPGTSPKLWIYSTSNLASGVPGRFSGSGSGTSYSLTISRMEAEDAATYYCQQRSNYPLTFGAGTKLELKR
# B5: anti-LukE mAb SM1B507 (antibody, mouse IgG1, kappa)
# heavy: EVQLQQSGAELVKPGASVKMSCKASGYTFTDYYMDWVKQSHGKSFEWIGHVNPYNGDTRYNQKFKGKATLTVDKSSTTAYMELNSLTSEDSAVYYCARGNFFDYWGQGTTLSVSSAKTTPPSVYPLAPGSAAQTNSMVTLGCLVKGYFPEPVTVTWNSGSLSSGVHTFPAVLESDLYTLSSSVTVPSSPRPSETVTCNVAHPASSTKVDKKIVPRDCGCKPCICTVPEVSSVFIFPPKPKDVLTITLTPKVTCVVVDISKDDPEVQFSWFVDDVEVHTAQTQPREEQFNSTFRSVSELPIMHQDWLNGKEFKCRVNSAAFPAPIEKTISKTKGRPKAPQVYTIPPPKEQMAKDKVSLTCMITDFFPEDITVEWQWNGQPAENYKNTQPIMNTNGSYFVYSKLNVQKSNWEAGNTFTCSVLHEGLHNHHTEKSLSHSPGK
# light: DIVMTQSPAIMSASPGEKVTIPCSASSSVSYMHWFQQKPGTSPKLWIYSTSNLASGVPGRFSGSGSGTSYSLTISRMEAEDAATYYCQQRSNYPLTFGAGTKLELKRADAAPTVSIFPPSSEQLTSGGASVVCFLNNFYPKDINVKWKIDGSERQNGVLNSWTDQDSKDSTYSMSSTLTLTKDEYERHNSYTCEATHKTSTSPIVKSFNRNEC
# B6: anti-LukAB mAb SM1B245 (antibody, mouse IgG2a, kappa, V domains shown)
# VH: QVQLQQSGAELAKPGASVKMSCKSSGYTFSTYWMHWVKQRPGQGLEWIGYINPNTGYTEYNQKFKDTATLTADKSSSTAYMQLSSLTSEDSAVYYCARGGSKAFPYYAMDYWGQGTSVTVSS
# VL: DIVLTQSPASLAVSLGQRATMSCRASESVDGYGNSFLHWYQQKPGQPPKLLIYRASNLESGIPARFSGTGSRTDFTLTITPVEADDVATYYCQQSNGDPFTFGSGTKLEIKR
# B7: antibody SM1B225 (antibody, V domains shown)
# VH: EVQLQQSGGGLVKPGGSLKLSCAASGFTFSSYAMSWVRQTPEKRLEWVATITGGGTYTYYLDSVKGRFTISRDNAKTSLYLQMSSLRSEDTAMYYCARHRDGNYGCFDVWGAGTTVTVSS
# VL: DIVLTQSPAIMSASLGERVTMTCTASSSVSSSYLHWYQQKPGSSPKLWVYSTSNLASGVPARFSGSGSGSSYSLTISSMEPEDTATYYCHQYHRSPQTFGGGTKLEIKR
# notes: also called anti-LukD mAb SM1B225
# B8: anti-LukAB mAb SM1B111 (antibody, V domains shown)
# VH: EVQLQQSGAELVKPGASVKISCKASGYAFSSSWMNWLKQRPGKGLEWIGRIYPGDGDTNYNGKFKGKATLTADKSSSTAYMQLSSLTSEDSAVYFCARYGYDYDGEYYYAMDYWGQGTSVTVSS
# VL: DIVMTQSPTTMAASPGERITITCSAHSNLISNYLHWYQQKPGFSPKLLIYRTSNLASGVPARFSGSGSGTSYSLTIGTMEAEDVATYFCQQGSSIPFTFGSGTKLEIKR
# B9: anti-LukE mAb SM1B332 (antibody, mouse IgG2a, kappa, V domains shown)
# VH: QVQLKESGPGLVAPSQSLSITCTVSGLSLTSYGLSWVRQPPGKGLEWLGVIWGDGSTNYHSALISRLSISKDNSKSQVFLKLNSLQSDDTATYYCATRGDYGSYAMDYWGQGTSVTVSS
# VL: QIVLTQSPAIMSASPGEKVTLTCSASSSVSSSYLFWYQQKPGSSPKLWIYSTSNLASGVPVRFSGSGFGTSYSLTISRMEAEDAASYFCHQWSSYPPTFGAGTKLELKR
# Legend:
# [1] = molecular target: T3, recombinant toxoid variant of the LukAB protein (LukA E323A) with poly-histidine and streptavidin binding … (Staphylococcus aureus, UniProt Q2FFA2 31-351; P21224 30-338); assay: ELISA, biotinylated LukAB toxoid on streptavidin plate, mAb titrated
# T3 construct: also called LukAB toxoid protein; biotinylated LukAB
# [2] = molecular target: T1, recombinant derivative of the LukE …; assay: HDX-MS, Fab with LukE in solution
# [3] = molecular target: T1, recombinant derivative of the LukE …; assay: ELISA, biotinylated LukE on streptavidin plate, mAb titrated
# [4] = molecular target: T1, recombinant derivative of the LukE …; assay: BLI, sequential binding
# [5] = molecular target: T2, recombinant derivative of the LukD …; assay: ELISA, biotinylated LukD on streptavidin plate, mAb titrated
binder,measurement,setting,value
B1,binding result,[1],binds
B2,binding result,[2],binds
B3,binding result,[3],binds
B4,binding result,[2],binds
B5,binding result,[4],binds
B6,binding result,[1],binds
B7,EC50,[5],0.01 to 0.2 µg/mL
B8,binding result,[1],binds
B9,EC50,[3],~0.05 µg/mL
